Experimental findings from patent US20170166934A1 are described below.

Data set [1] concerns T1, wild type Penicillium oxalicum glucoamylase.
T1 sequence: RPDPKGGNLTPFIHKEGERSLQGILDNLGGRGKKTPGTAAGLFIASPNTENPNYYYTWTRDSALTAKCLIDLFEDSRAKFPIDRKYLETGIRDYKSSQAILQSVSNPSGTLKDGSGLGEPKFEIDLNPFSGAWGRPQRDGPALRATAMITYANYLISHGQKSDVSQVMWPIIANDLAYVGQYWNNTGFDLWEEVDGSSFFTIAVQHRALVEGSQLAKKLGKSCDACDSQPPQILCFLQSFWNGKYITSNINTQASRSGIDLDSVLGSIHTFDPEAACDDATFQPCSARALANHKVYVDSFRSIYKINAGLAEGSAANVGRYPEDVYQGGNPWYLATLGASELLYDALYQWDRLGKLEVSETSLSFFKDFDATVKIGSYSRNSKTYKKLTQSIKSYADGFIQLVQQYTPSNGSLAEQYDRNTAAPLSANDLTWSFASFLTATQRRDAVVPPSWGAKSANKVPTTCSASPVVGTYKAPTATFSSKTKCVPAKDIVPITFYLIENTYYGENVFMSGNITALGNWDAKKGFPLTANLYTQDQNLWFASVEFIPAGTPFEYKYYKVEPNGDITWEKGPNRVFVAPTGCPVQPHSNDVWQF

Data set [2] concerns the target wild type Penicillium oxalicum glucoamylase (Penicillium oxalicum). Put plainly: cell-based or functional assay.
The target in data set [3] is Penicillium oxalicum glucoamylase variant PE001 (SEQ ID NO: 14 + K79V substitution) (Penicillium oxalicum). In words: cell-based or functional assay.

Take aorsin: in data set [1], the “cleaved glucoamylase (ca. 60 kDa) on SDS-PAGE after overnight protease treatment at 4 °C” value was found to be 60% and the “cleaved glucoamylase (ca. 60 kDa) on SDS-PAGE after overnight protease treatment at 32 °C” value is 90%.
With aorsin (enzyme), in data set [2], the intact glucoamylase (ca. 70 kDa) on SDS-PAGE after overnight protease treatment at 4 °C amounted to 40% and the intact glucoamylase (ca. 70 kDa) on SDS-PAGE after overnight protease treatment at 32 °C amounted to 10%. In data set [3], the intact glucoamylase (ca. 70 kDa) on SDS-PAGE after overnight protease treatment at 4 °C amounted to 100% and the intact glucoamylase (ca. 70 kDa) on SDS-PAGE after overnight protease treatment at 32 °C was 100%.
As to aspergillopepsin I, the “cleaved glucoamylase (ca. 60 kDa) on SDS-PAGE after overnight protease treatment at 32 °C” value in data set [1] was 10%.
In data set [2], aspergillopepsin I (enzyme) registered an intact glucoamylase (ca. 70 kDa) on SDS-PAGE after overnight protease treatment at 4 °C of 100% and an intact glucoamylase (ca. 70 kDa) on SDS-PAGE after overnight protease treatment at 32 °C of 90%. Moreover, in data set [3], the intact glucoamylase (ca. 70 kDa) on SDS-PAGE after overnight protease treatment at 4 °C was 100% and the intact glucoamylase (ca. 70 kDa) on SDS-PAGE after overnight protease treatment at 32 °C was found to be 100%.
